assay: yeast display, Sf9 membrane polyspecificity reagent, FACS + sequencing; frameworks hold sequencing errors
Summary of the method: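 Polyreactivity labels are assigned by the sorting gate from which each nanobody was recovered. The gates were low and high (top ~1%), set on anti-HA fluorescence for expression and streptavidin fluorescence for reagent binding. Before sorting, galactose-induced (36–48 hours) yeast display cells were stained for 1 hour at 4 °C with 10% biotinylated, detergent-solubilized Sf9 membrane reagent.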

Sequence | polyreactivity (PSR sort gate)
QDQLVESGGGLVQAGASLRLSCAASGSNGYYAMGWYRQAPGKERELVAVISRSGTGTYYADSVKGRFTISRDNAKNSVYLQMNSLKPEDTAVYYCNAETYTYRYEYDYWGQGTQVTVSS | high polyreactivity
QDQLVESGGGLVQAGCSLRLSCAASGLIFNYKVMGWYRHAPGKERELVAAISRGGSTYYADSVKGRFTFSRDNAKNTVYLQMNSLKPEDTAVYYCAARYRSRYDYWGQGTQVTVSS | high polyreactivity
QDQLVESGGGLVQAGCSLRLSCAASGSTIPYNAMGWYRQAPGKERELVAAITWRAGRTYYADSVKGRFTISRDNAKITVYLQMNSLKAEDTAVYDCAKSYQRGVNHYEYWGQGTQVTVSS | high polyreactivity
QDQLVESGGGLVQAGGRLRLSCAASGLMFYYYAMGWYIQAPGKEREFVAAISRSGGITRYADSVKGRFTISRDNAKNTVYLQMNRLKPEDTAVYYCAAAVGSVRYDYWGQGTQVTVSS | high polyreactivity
QDQLVESGGGLVQAGGSHRLSCAASGFIIGYYAMGWYRQAPGKEMELVASIRRGGSTYYADSVKGRFTISRDNAKNTVYLQMNSLKPEDTAVYYCAAQRSVVGWWSRTSLYGDSDYWGLGTQVTVSS | high polyreactivity
QDQLVESGGGLVQAGGSLCLSCAASGITFRFYAMGWNRQAPGKERELVAAISWSGGRTYYADSVKGRFTISRDNAKNTVYLQMNSLKPEDTAVYYCAAEASSVPGYDYWGEGTQVTVSS | low polyreactivity
QDQLVESGGGLVQAGGSLGLSCAASGITFDLYDMGWYRQAPGKERELVAAITDAHSTYYADSVKGRFTISRDNAKNTVYLQMNSLKPEDTAVYYCAADFFYSVDSGHYDYWGQGTQVTVSS | low polyreactivity
QDQLVESGGGLVQAGGSLRISCAASGFTLKKYVMGWYRQAPGKERELVAAISSSGGSTYYADSVKGRFTISRDNAKNTVYLQMNSLKPEDTAVYYCAAVQSYAGFEYGYWGQGTQVTVSS | high polyreactivity
QDQLVESGGGLVQAGGSLRISCAASGSTFPLYAMGWYRQAPGKEMEFVAAIRWIGGSTYYADSVKGRFTISRDNAMNTVYLQMNSLKPEDTAVYYCAADYVVSAFDYWGQGTQVTVSS | low polyreactivity
QDQLVESGGGLVQAGGSLRISCGASGRIFDIYAMGWYRQAPGKERELVADITSGGSTYYADSVQGRFTISRVNAKNTVYLQMNSLKPEDTAVYYCAARLFADYWGQGTHVTVSS | low polyreactivity
QDQLVESGGGLVQAGGSLRLICAASGFTFRWYSMGWYRQAPGKERELVADISRGGSTNYADSVKGRFTISRDHAKNSVYLQMNSLTPEDTAVFYCAATQRKYGYKSYYYWGQGTQVTVSS | high polyreactivity
QDQLVESGGGLVQAGGSLRLSCAASASIFNVNTMGWYRQAPGKERELVAAISYSGGSTYYADSVKGRFTISRDIAKNTVYLQMISLKPEDTAFYYCNVSPTTTVDGGGYDSWGQGTQVTVSS | low polyreactivity
QDQLVESGGGLVQAGGSLRLSCAASGFIFADYAMGWYRQATGKERELVAAISWGGGSTYYADSVKGRFTISRDIAKNTVYLQMNSLKPEDTAVYYCAAANPGSEYDYWGQGTQVTVSS | high polyreactivity
QDQLVESGGGLVQAGGSLRLSCAASGFIFLPYVMGWYRQAPGKERELVAAISGGGGITYYADSVKGRFTISRDNAKNTVYLQMNSLKPEDTAVYYCAARRQRFGYWGQGTQVTVSS | low polyreactivity
QDQLVESGGGLVQAGGSLRLSCAASGFIFSPYAMGWYRQAPGKERELVAAINGGGRTYYADSVKGRFTISRDNAKNTVYLQMNILKPEDTAVYYCAVDPISQGHMDYWGQGTLVTVSS | low polyreactivity
QDQLVESGGGLVQAGGSLRLSCAASGFIIQGNAMGGYRQAPRKERELVAAISSSVSTYYADSVKGRFTISRDNAKNTVYLQMNSLKPEDTAVYYCNSGFPLSLWLGDYWGQGTQVTVSS | low polyreactivity
QDQLVESGGGLVQAGGSLRLSCAASGFIVHRYVMGWYRQAPGKERELVAAISSGGSTNYADSVKGRFTISRDNAKNSVYLQMTSLKPEDTAVYYCAADGFYYRNWGRFRYYYWGQGTQVNVSS | low polyreactivity
QDQLVESGGGLVQAGGSLRLSCAASGFTFGDYAMGWYRQEPGKERELVAAISWSGSNTYYADSVKGRFTISRDNAKNTVYLQMNSLKPEDTAVYYCNADYDPEDMDYWGQGTQVTVSS | low polyreactivity
QDQLVESGGGLVQAGGSLRLSCAASGFTFSVNAMGWYRQAPGKERELVAAITRGRSTSYADSVKGRFTISRDNAKNTVYLQKNSLKPEDTAVYYCAASYSGGTWSGYYYWGQGTQVTVSS | high polyreactivity
QDQLVESGGGLVQAGGSLRLSCAASGFTFSWNAMGWYRQSPGKERQLVAAISWSGGSTYYADSVKGRFTISRDNAKNTVYLQMNSLKPEDTAVYYCNAGSTRAASRVRYDYWGQGTQVTVSS | high polyreactivity
QDQLVESGGGLVQAGGSLRLSCAASGFTFTRYAMGWYRQAPGKERELVAAITQRGGSTYYADSVKGRFTISRDNAKNTVYLQMNSLKPEDTAVYYCAAVQTRRWYGYLYNYWGQGTQVTVSS | high polyreactivity
QDQLVESGGGLVQAGGSLRLSCAASGFTFTRYAMGWYRQAPGKERELVAAITRRSGRTYYADSVKGRFTISRDNAKNTVYLQMNSLKPEDTAVYYCNAVRTTPSGSLPLAYDYWGQGTQVTVSS | high polyreactivity

Sequence | polyreactivity (PSR sort gate)
QDQLVESGGGLVQAGGSLRLSCAASGFTFVINDMGWYRQAPGKERELVADITSGGDTYYADSVKGRFTISRDNAKNTVYLQMNSLKPEDTAVYYCNTDTYFPLYDYWGQGTQVTVSS | low polyreactivity
QDQLVESGGGLVQAGGSLRLSCAASGIIFGYYAMGWDRQAPGKERELVAAISSGGTTSYADSVKGPFTISRDNEKNTVSLQMNSLKPEYTAVYYCAARDGYDGFYYWGQGTQVTVSS | low polyreactivity
QDQLVESGGGLVQAGGSLRLSCAASGIIIWRYAMGRYRQAPRKERELVAGITSRGGSTYYADSVKGRFTISRDNAKNTVYLQMNSLKPEDTAVYYCNADWYGLLWWGVDYWGQGTQVTVSS | high polyreactivity
QDQLVESGGGLVQAGGSLRLSCAASGITFDYYVMGWYRKAPGKEMELVAAISWSGGTTYYADSVKGRFTISRDNAKNTVSLQMNSLKPEDTAVYYCNAEHTGSFYGGYPWEMEYWGQGTQVTVSS | low polyreactivity
QDQLVESGGGLVQAGGSLRLSCAASGITFRWYAMGWYRQAPGKERELVAAITSVDSTDYADSVKGRFTISRDNAKNTVYLQMNSLKPEDTAVYYCAARIGTGVLPGRGANSHMDYWGQGTQVTVSS | low polyreactivity
QDQLVESGGGLVQAGGSLRLSCAASGITFRYYAKGWYRPSPGKERELLAAISTSGGNTYYADSVKGRLTISRDNAKNTVYLQMKSLKPEDTAVYYCDVDGEYWYEYDGDYWGQGTQVNVSS | low polyreactivity
QDQLVESGGGLVQAGGSLRLSCAASGITFYGYAMGWYRQAPGKERELVAAISESGGSTYYADSVKGRFTISRDNAKNTVYLQMNSLKPEDTAVYYCAAQGYSVYCYSNYWGQGTQVTVSS | low polyreactivity
QDQLVESGGGLVQAGGSLRLSCAASGITFYRNAMGWYRQAPGKERELVAAITSGTRTNYADSVKGRFTISRDNAKNTVYLQMNSLKPEDTAVYYCAKGGRSSSPLYRFEYWGQGTQVTVSS | high polyreactivity
QDQLVESGGGLVQAGGSLRLSCAASGLIFPYNAMGWYRQAPGKERELVAAIDTRGSSTYYADSVKGRFTISRDNAKNTVYLQMNSLKPEDTAVYYCIPRSGRSPTGFRYWGQGTEVTVSS | high polyreactivity
QDQLVESGGGLVQAGGSLRLSCAASGLIFVSYAMGWYRQAPGKERELVASITDSDSSTYYADSVKGRFTISRDNAKNTVYLQMNSLKPEDTAVYYCATGGRTEIWYPTLDYWGQGTQVTVSS | low polyreactivity
QDQLVESGGGLVQAGGSLRLSCAASGLIFYGNAMGWYRQAPGQERELVADISGSSVRTYYADSVKGRFTISRDNAKNTVCLQMNSLKPEDTAVYYCAATYGYLYTGLSRYDYWGQGTQVTVSS | low polyreactivity
QDQLVESGGGLVQAGGSLRLSCAASGLIYSYYALGWSRQATGKERELVASISRSGGSTYYADSVKGRFTISRDNAKNTVYLQMNILKPEDPAVYYCDAPGYYRTSRMDYWGQGTQVTVSS | high polyreactivity
QDQLVESGGGLVQAGGSLRLSCAASGLTFEKYAMGWYRQAPGKERELVAAISQDGGSTYYADSVKGRFTISRDNAKNTVYLQMNSLKPEDTAVYYCAAEDPDSWLPWDLFDYWGQGTQVTVSS | low polyreactivity
QDQLVESGGGLVQAGGSLRLSCAASGLTFQSYAIGWYRQAPGKERELVATISNGSSTYYADSVKGRFTISRDNAKNTVYLQMNSQKPEDTAVYYCAADGYLHAGHWRTYGYYYWGHGTQVTVSS | low polyreactivity
QDQLVESGGGLVQAGGSLRLSCAASGLTIIFNAMGWYRQAPGKERELVADISSGVNTNYADSVKGRFTISRDNAKNTVYLQMNSLKPEDTAVYYCAARLAQSTGYGYWGQGTQVTVSS | low polyreactivity
QDQLVESGGGLVQAGGSLRLSCAASGPIFYPYVMGWYRQAPGKERELVAAISDSTGSTYYADSVKGRFTISRDNAKNTVYLQMNSLKPEDTAVYYWGQGTQVTVSS | low polyreactivity
QDQLVESGGGLVQAGGSLRLSCAASGRIFLYNAMGWYRQAPGKERELVAAIDGGGTTYADSVKGRFTISRDNAKNTVYLQMNSLKPEDTAVYYCAADWYYQYSIYRYGYWGQGTQVTVSS | low polyreactivity
QDQLVESGGGLVQAGGSLRLSCAASGRIFPVYAMGWYRQAPGKERELVATITSRTGRTYYADSVKGRFTISRDNAKITVYLQMNSLKPEDTAVYYCAARGYYSAPGYGYWGQGTQVTVSS | high polyreactivity
QDQLVESGGGLVQAGGSLRLSCAASGRIFVHNAMGWYRQAPGKERELVAAIYQNGGRTYYADSVKGRFTISRDNAMNTVYLQMNSLKPEDTAVYYCAAGQARAGLIGGYWGQGTQVTVSS | high polyreactivity
QDQLVESGGGLVQAGGSLRLSCAASGRILASYAMGWYRQAPGKERELVAAISLSGGSTYYADSVKGRFTISRDNAKNTVYLQMNSLKPEDTAVTYCAAKYPQKTPVNSYGNSFYYWGQGTQVTGSS | low polyreactivity
QDQLVESGGGLVQAGGSLRLSCAASGRILPYYTMGWYRQAPGKERELVAAISKRGTSTYYADSVKGRFTISRDNAKNTVYLQMNSLKPEDTAVYYCAKRGPGVDYDYWGQGTQVTVSS | high polyreactivity

From the nanobody polyreactivity screen of Harvey et al. (2022)
